Reference: patent US20030113743

Assays:
[1] = tested on: synthetic peptide, residues 210-236 of hK2 (peptide #1 of FIG. 16)
[2] = tested on: phK2^v217 (pro form of hK2 with valine at residue 217)
[3] = tested on: peptide #3 of FIG. 16, amino acid residues -7 to +7 of phK2

Sequence of synthetic peptide, residues 210-236 of hK2 (peptide #1 of FIG. 16) (chain, as listed by the source): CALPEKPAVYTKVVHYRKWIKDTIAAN

Substance	peptide bond cleavage (RP-HPLC, N-terminal sequencing) [1]	conversion of pro to mature form (HIC-HPLC) [2]	conversion of pro to mature form (HIC-HPLC, N-terminal sequencing) [2]	peptide bond cleavage [3]
hK2^v217 (mature hK2 polypeptide having an alanine to valine substitution at amino acid position 217)	trypsin-like cleavage at a 2:1 ratio over the chymotrypsin-like cleavage	no difference in the ratios of the two hK2 forms was detected even after 6 hours	–	–
phK2^v217 (pro form of hK2 with valine at residue 217)	showed no amidolytic activity	–	–	–
prostate-specific antigen protein, hK3 (PSA)	PSA cleaved the Y-R bond primarily	–	–	–
trypsin	–	–	complete conversion of phK2^v217 to hK2^v217	–
wild type mature hK2 (prostate-specific glandular kallikrein protein)	its activity was exclusive for the trypsin-like site (R-K)	at a rate about 30× slower than trypsin	–	hK2 was able to cleave this peptide releasing the propeptide region
